Test results published in PMC5656003.

Tested on: O=[N+]([O-])c1ccc(O[C@@H]2O[C@H](CO)[C@@H](O)[C@H](O)[C@H]2O)cc1
Assay: pNP release, initial-rate kinetics
Type: biochemical, Bacteroides ovatus

| Substance | Km | kcat | kcat/Km |
| --- | --- | --- | --- |
| BACOVA_02738 (GH3) (Bacteroides ovatus) | 2530 ± 130 µM | 0.212 ± 0.004 s⁻¹ | 83.8 M⁻¹ s⁻¹ |
| BoGH3MLG (Bacteroides ovatus) | 2950 ± 140 µM | 59.5 ± 1.46 s⁻¹ | 20200 M⁻¹ s⁻¹ |
